Like-named read-outs stand apart in the source and are kept apart here.
B1: 人源化抗体hS1B-48-2 (antibody, V domains shown)
VH: EVQLVQSGAEVKKPGASVKVSCKASGYTFTNYVMHWVRQAPGKGLEWIGYFNPYNDDAEYNEKFKGKATLTSDKSTSTAYMKLSSLRSEDTAVYYCASLRQETDYWGQGTTLTVSS
VL: DIVLTQSPSSLAVSLGERATINCRASESVDNYGFSLMNWFQQKPGKPPKLLIYEASNQGSGVPARFSGSGSGTDFTLKISRLQAEDVAVYFCHQSKEVPWTFGGGTKLEIKR
B2: 鼠源抗体S1B-48-2 (antibody, V domains shown)
VH: EVQLQQSGPELEKPGASVKMSCKASGYTFTNYVMHWVKQKPGQGLEWIGYFNPYNDDAEYNEKFKGKATLTSDKSSSTAYMVLSSLTSEDSAVYYCACLRQETDYWGQGTTLTVSS
VL: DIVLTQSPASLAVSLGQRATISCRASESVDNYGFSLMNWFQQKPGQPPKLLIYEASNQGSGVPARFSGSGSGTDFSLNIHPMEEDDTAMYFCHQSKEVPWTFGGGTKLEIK
B3: 鼠源抗体S1B-64-2 (antibody, V domains shown)
VH: EVQLQQSGPELEKPGASVKMSCKASGYTFTNYVMHWVKQKPGQGLEWIGYFNPYNDGTKYNEKFKGKATLTSDKSSSTAYMELSSLTSEDSAVYYCACLRQRADYWGQGTTLTVSS
VL: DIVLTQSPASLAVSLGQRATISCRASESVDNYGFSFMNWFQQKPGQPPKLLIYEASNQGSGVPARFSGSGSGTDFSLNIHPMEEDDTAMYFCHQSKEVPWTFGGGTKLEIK

Key:
刺突S-鼠Fc融合蛋白(S-mFc) [1] = target: T1, 刺突S-鼠Fc融合蛋白(S-mFc) (SARS-CoV-2; mouse, UniProt P0DTC2 14-1213); test: flow cytometry, antibody blocks binding of S-mFc to 293T-ACE2 cells
T1 construct: domain: S蛋白全长区段

[2] = target: T2, SARS-CoV-2 S1蛋白 (ACRO Biosystems) (SARS-CoV-2, UniProt P0DTC2 16-685)
[3] = target: T2, SARS-CoV-2 S1蛋白 (ACRO Biosystems); test: BLI, biotinylated SARS-CoV-2 S1 on SA sensor, antibody as analyte, 1:1 model
刺突S-鼠Fc融合蛋白(S-mFc) [4] = target: 刺突S-鼠Fc融合蛋白(S-mFc) (SARS-CoV-2; mouse, UniProt P0DTC2 14-1213); test: flow cytometry, antibody blocks binding of S-mFc to 293T-ACE2 cells
[5] = target: SARS-CoV-2 S1蛋白 (ACRO Biosystems) (SARS-CoV-2, UniProt P0DTC2 16-685); test: BLI, biotinylated SARS-CoV-2 S1 on SA sensor, antibody as analyte, 1:1 model

Row | Binder | IC50 (刺突S-鼠Fc融合蛋白(S-mFc) [1]) | EC50 [2] | Kd [3] | koff [3] | kon [3] | IC50 (刺突S-鼠Fc融合蛋白(S-mFc) [4]) | Kd [5] | koff [5] | kon [5]
1 | B1 | 0.00582 µg/mL | 0.0197 µg/mL | 0.00113 nM | 9.81e-07 s⁻¹ | 867000 M⁻¹ s⁻¹ |  |  |  | 
2 | B2 |  |  |  |  |  | 0.0108 µg/mL | 0.0156 nM | 4.27e-06 s⁻¹ | 273000 M⁻¹ s⁻¹
3 | B3 |  |  |  |  |  |  | 0.091 nM | 4.43e-05 s⁻¹ | 487000 M⁻¹ s⁻¹
